Results published in paper PMC4807369.

Molecular target: IrmA secreted from E. coli MG1655 carrying a plasmid encoding irmA (strain MS5667) (Escherichia coli)
Test: native gel or EMSA

In the case of “IrmA secreted from E. coli MG1655 carrying a plasmid encoding irmA (strain MS5667) (natural protein)”, the stoichiometry N is reported as 2.
